According to PMC12187869, “Transport of the uremic toxin symmetric dimethylarginine (SDMA) by renal transport proteins” (Amino Acids, 2025):

System: T1, CN=C(NC)NCCC[C@H](N)C(=O)O
T1 construct: HEK293 cells stably expressing human CAT1
Test: [3H]SDMA uptake kinetics (Km) and efflux in HEK-CAT1 cells
Type: cell-based, Homo sapiens

Sequence of CAT1 (Homo sapiens) (chain, as listed by the source): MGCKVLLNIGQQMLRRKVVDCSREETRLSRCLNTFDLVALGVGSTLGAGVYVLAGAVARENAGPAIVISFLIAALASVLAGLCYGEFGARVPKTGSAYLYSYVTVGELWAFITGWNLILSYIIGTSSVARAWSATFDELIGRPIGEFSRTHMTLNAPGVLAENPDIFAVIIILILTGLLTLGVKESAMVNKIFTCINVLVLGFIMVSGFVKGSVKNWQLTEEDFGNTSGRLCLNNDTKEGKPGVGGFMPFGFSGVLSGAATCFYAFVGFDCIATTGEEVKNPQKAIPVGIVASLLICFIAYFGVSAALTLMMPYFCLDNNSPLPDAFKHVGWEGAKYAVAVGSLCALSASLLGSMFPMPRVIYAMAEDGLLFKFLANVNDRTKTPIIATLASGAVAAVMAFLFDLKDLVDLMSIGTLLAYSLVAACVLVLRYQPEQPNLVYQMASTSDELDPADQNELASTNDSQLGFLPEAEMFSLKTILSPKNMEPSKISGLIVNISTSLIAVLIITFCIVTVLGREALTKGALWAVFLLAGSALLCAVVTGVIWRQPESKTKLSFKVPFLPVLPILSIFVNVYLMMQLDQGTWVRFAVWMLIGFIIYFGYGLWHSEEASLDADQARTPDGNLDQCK

Substance CAT1 (Homo sapiens) has a Km of 246 µM.
